This experiment has as its target LMW-E-T1 (low molecular weight form of cyclin E, T1), MMTV transgene in mouse salivary gland tumors.

With “CDK1 (endogenous in mouse salivary gland tumors) (from UniProt P11440 1-297) (enzyme)”, the decrease of cyclin E-associated histone H1 kinase activity after 3 rounds of immunodepletion of CDK1 (90%), CDK2+/+ tumor lysate (sample 3085) was found to be 7% and the decrease of cyclin E-associated histone H1 kinase activity after 3 rounds of immunodepletion of CDK1 (90%), CDK2-/- tumor lysate (sample 4111) turned out to be 14%.

The values are drawn from publication PMC8121779.
